The text below walks through data of patent publication US20110118447A1.

Where a chain is given by its changes, count along the chain named. Numbers in names are those of the source.

B1: C5A (XPA23) VL D28P (antibody, V domains shown)
VH: EVQLLESGGGLVQPGGSLRLSCAASGFTFSKYFMFWVRQAPGKGLEWVSVISPSGGMTRYADSVKGRFTISRDNSKNTLYLQMNSLRAEDTAVYYCARVGYGGNSDYWGQGTLVTVSS
VL: DIQMTQSPSSVSASVGDRLTIICRASQPINRWLAWYQQTPGNAPKLLIHSATSLQSGVPSRFSGSGSGTDFTLTINSLQPEDFATYYCQQADSFPLTFGGGTKVEIK
B2: C5A (XPA23) VL N30P (antibody, V domains shown)
VH: B1 VH
VL: B1 VL with P28D, N30P
B3: C5A (XPA23) VL N30F (antibody, V domains shown)
VH: B1 VH
VL: B1 VL with P28D, N30F
B4: C5A (XPA23) VL N30L (antibody, V domains shown)
VH: B1 VH
VL: B1 VL with P28D, N30L
B5: C5A (XPA23) VL A51G (antibody, V domains shown)
VH: B1 VH
VL: B1 VL with P28D, A51G
B6: C5A (XPA23) VL N30G (antibody, V domains shown)
VH: B1 VH
VL: B1 VL with P28D, N30G
B7: C5A (XPA23) VL H49A (antibody, V domains shown)
VH: B1 VH
VL: B1 VL with P28D, H49A
B8: C5A (XPA23) VL S50V (antibody, V domains shown)
VH: B1 VH
VL: B1 VL with P28D, S50V
B9: C5A (XPA23) VL R31V (antibody, V domains shown)
VH: B1 VH
VL: B1 VL with P28D, R31V
B10: C5A (XPA23) VL S50L (antibody, V domains shown)
VH: B1 VH
VL: B1 VL with P28D, S50L
B11: C5A (XPA23) VL S50G (antibody, V domains shown)
VH: B1 VH
VL: B1 VL with P28D, S50G
B12: C5A (XPA23) VL A51L (antibody, V domains shown)
VH: B1 VH
VL: B1 VL with P28D, A51L
B13: C5A (XPA23) VL R31L (antibody, V domains shown)
VH: B1 VH
VL: B1 VL with P28D, R31L
B14: C5A (XPA23) VL S50A (antibody, V domains shown)
VH: B1 VH
VL: B1 VL with P28D, S50A
B15: C5A (XPA23) VL S50I (antibody, V domains shown)
VH: B1 VH
VL: B1 VL with P28D, S50I
B16: C5A (XPA23) VL H49P (antibody, V domains shown)
VH: B1 VH
VL: B1 VL with P28D, H49P
B17: C5A (XPA23) VL H49F (antibody, V domains shown)
VH: B1 VH
VL: B1 VL with P28D, H49F
B18: C5A (XPA23) VL N30V (antibody, V domains shown)
VH: B1 VH
VL: B1 VL with P28D, N30V
B19: C5A (XPA23) VL R31A (antibody, V domains shown)
VH: B1 VH
VL: B1 VL with P28D, R31A
B20: C5A (XPA23) VL R31I (antibody, V domains shown)
VH: B1 VH
VL: B1 VL with P28D, R31I
B21: C5A (XPA23) VL A51V (antibody, V domains shown)
VH: B1 VH
VL: B1 VL with P28D, A51V
B22: C5A (XPA23) VL R31G (antibody, V domains shown)
VH: B1 VH
VL: B1 VL with P28D, R31G
B23: C5A (XPA23) VL S50W (antibody, V domains shown)
VH: B1 VH
VL: B1 VL with P28D, S50W
B24: C5A (XPA23) VL H49W (antibody, V domains shown)
VH: B1 VH
VL: B1 VL with P28D, H49W
B25: C5A (XPA23) VL N30A (antibody, V domains shown)
VH: B1 VH
VL: B1 VL with P28D, N30A
B26: C5A (XPA23) VL R31F (antibody, V domains shown)
VH: B1 VH
VL: B1 VL with P28D, R31F
B27: C5A (XPA23) VL N30W (antibody, V domains shown)
VH: B1 VH
VL: B1 VL with P28D, N30W
B28: C5A (XPA23) VL R31W (antibody, V domains shown)
VH: B1 VH
VL: B1 VL with P28D, R31W
B29: C5A (XPA23) VL N30I (antibody, V domains shown)
VH: B1 VH
VL: B1 VL with P28D, N30I
B30: C5A (XPA23) VL H49L (antibody, V domains shown)
VH: B1 VH
VL: B1 VL with P28D, H49L

The target in this experiment is binding partner of C5A (XPA23). Description: Biacore K-off. (In general: Surface plasmon resonance follows binding to a sensor surface in real time, without labels.)
For B1, the fold difference in affinity vs original is 1.17 fold.

For B2, the fold difference in affinity vs original amounted to 0.69 fold.

Consider B3, for which the fold difference in affinity vs original was determined as 1.59 fold. As to B4, the fold difference in affinity vs original is 0.68 fold. Take B5: the fold difference in affinity vs original was 3.84 fold. With B6 the figure was 0.71 fold; with B7, 0.23 fold; with B8, 0.21 fold. The same measure for B9: 0.44 fold. As to B10, the fold difference in affinity vs original worked out at 0.49 fold. For the molecule B11, the fold difference in affinity vs original is 0.14 fold. In the case of B12, the fold difference in affinity vs original came to 0.16 fold. As to B13, the fold difference in affinity vs original is 0.51 fold. On to B14, for which the fold difference in affinity vs original was 0.13 fold. The same measure for B15: 0.25 fold; for B16: 0.86 fold. The same measure for B17: 0.5 fold; for B18: 0.89 fold.

As for B19, the fold difference in affinity vs original is 8.48 fold. The same measure for B20: 0.68 fold; for B21: 0.31 fold; for B22: 0.92 fold. With B23 the figure was 0.02 fold. With B24 the figure was 0.21 fold; with B25, 0.61 fold; with B26, 0.92 fold. Regarding B27, the fold difference in affinity vs original was found to be 1.06 fold. The same measure for B28: 0.43 fold; for B29: 0.65 fold. For the molecule B30, the fold difference in affinity vs original turned out to be 0.07 fold.
